For experiment [1], the target named is T1, human CD73 protein (R&D Systems, Inc., 5795) (human, UniProt P21589 27-549).
T1 sequence (looked up): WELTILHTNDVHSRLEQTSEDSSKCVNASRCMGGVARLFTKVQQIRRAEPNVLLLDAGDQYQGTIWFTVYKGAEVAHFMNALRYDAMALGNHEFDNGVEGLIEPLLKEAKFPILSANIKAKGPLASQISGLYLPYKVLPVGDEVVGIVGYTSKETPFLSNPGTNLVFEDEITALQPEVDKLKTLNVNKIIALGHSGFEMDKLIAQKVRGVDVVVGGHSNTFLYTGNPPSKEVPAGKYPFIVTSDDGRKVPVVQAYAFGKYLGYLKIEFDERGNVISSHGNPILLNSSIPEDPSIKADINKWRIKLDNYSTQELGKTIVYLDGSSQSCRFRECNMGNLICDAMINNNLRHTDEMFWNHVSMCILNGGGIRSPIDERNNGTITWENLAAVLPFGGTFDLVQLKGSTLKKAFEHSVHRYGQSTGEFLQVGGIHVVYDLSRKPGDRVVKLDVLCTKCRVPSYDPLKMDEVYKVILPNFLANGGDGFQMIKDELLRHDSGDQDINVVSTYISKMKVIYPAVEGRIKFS
Put plainly: cell-based or functional assay.

Experiment [2] has as its target T2, human CD73 expressed on cells (cancer cell line NCI-H1373 endogenously expressing human CD73); human T cell … (human, UniProt P21589 27-549).
T2 sequence (looked up): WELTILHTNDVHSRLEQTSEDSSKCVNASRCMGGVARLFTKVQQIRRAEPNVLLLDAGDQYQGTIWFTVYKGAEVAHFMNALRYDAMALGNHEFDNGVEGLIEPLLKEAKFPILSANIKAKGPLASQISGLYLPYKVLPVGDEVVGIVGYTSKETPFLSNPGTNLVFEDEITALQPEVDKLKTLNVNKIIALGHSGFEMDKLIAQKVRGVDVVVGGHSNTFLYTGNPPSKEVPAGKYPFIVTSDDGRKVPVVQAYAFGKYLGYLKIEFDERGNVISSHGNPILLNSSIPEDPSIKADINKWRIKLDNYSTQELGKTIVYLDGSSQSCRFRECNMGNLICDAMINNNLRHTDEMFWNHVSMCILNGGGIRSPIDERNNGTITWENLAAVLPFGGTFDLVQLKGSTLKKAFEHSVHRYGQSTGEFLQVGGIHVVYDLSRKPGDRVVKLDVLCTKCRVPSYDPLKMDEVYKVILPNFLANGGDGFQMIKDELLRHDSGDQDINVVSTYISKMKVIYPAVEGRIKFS
Put plainly: cell-based or functional assay.

Experiment [3] has as its target T2, human CD73 expressed on cells (cancer …). The experiment can be described thus: cell-based or functional assay. This is another data set of the same source.
The target of experiment [4] is T3, human CD73 protein (BPS Bioscience Inc., 71184) (human, UniProt P21589 27-547, limits assumed).
T3 sequence (looked up): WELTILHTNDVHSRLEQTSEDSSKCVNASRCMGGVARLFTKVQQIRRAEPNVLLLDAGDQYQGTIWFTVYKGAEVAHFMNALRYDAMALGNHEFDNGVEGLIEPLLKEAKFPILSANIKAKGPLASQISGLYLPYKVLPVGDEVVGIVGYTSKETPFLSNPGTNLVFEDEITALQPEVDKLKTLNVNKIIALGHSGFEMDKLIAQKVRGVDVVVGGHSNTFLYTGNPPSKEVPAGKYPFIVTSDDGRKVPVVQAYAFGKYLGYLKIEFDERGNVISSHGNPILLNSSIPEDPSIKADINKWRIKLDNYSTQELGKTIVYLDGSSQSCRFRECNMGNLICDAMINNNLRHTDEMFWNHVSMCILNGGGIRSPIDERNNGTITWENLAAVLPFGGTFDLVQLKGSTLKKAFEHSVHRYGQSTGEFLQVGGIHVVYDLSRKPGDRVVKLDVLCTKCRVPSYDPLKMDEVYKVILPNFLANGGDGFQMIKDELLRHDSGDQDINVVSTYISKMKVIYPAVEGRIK
Put plainly: ELISA, human CD73 protein immobilised on plate, first run. As for the experimental part: (§1) In order to evaluate the binding activity of CDS-1, CDS-3, CDS-6, CDS-7, and CDS-8 acquired in Example 1 to human CD73, the ELISA was performed using a human CD73 protein. The human CD73 protein (BPS Bioscience Inc., 71184) diluted in PBS (Life Technologies, Inc.) to have a concentration of 4 μg/mL was added to a MaxiSorp 384-well plate Clear (Thermo Fisher Scientific Inc.) by an amount of 20 μL/well, and then immobilized overnight at a temperature of 4° C. The next day, the resultant was washed with a wash solution (0.05% Tween-20 containing Tris-buffered saline (TBS)) once, Blocking One (Nacalai tesque, Inc.) was added thereto in an amount of 100 μL/well, and the resultant was blocked at room temperature for 30 minutes. The resultant was washed with the wash solution once again, and the purified CDS-1, the purified CDS-3, the purified CDS-6, the purified CDS-7, or the purified CDS-8 prepared in Example 1 was added thereto by an amount of 20 μL/well, respectively. […] The values of absorbance at 450 nm and 540 nm were measured by Infinite M200 PRO (TECAN Inc.), and EC₅₀ values of CDS-1, CDS-3, CDS-6, CDS-7, and CDS-8 with respect to the human CD73 protein were calculated. In calculation of the EC₅₀ values, the ordinate represents a difference in the measurement values of absorbance at 450 nm and 540 nm, and the abscissa represents an antibody concentration value.
For orientation: An ELISA detects its analyte on a solid surface through an enzyme-linked reagent.

Experiment [5] addresses T3, human CD73 protein (BPS Bioscience …). Put plainly: ELISA, human CD73 protein immobilised on plate, second run. As for the experimental part: as §1, with “respectively. These purified antibodies were diluted using a reaction buffer obtained by mixing the same amount of PBS and Blocking One, and dilution was performed in 12 steps from 10 μg/mL to 56 pg/mL. The resultant was reacted at room temperature for 1 hour, and then washed three times with a wash solution. 20 μL/well of a human IgG-heavy and light chain cross-adsorbed antibody (Bethyl Laboratories Inc., A80-219P) which had been diluted 4000-fold with a reaction buffer was added thereto, and the resultant was reacted at room temperature for 1 hour. The resultant was washed with a wash solution three times, and 20 μL/well of TMB+substrate-chromogen (DAKO Ltd., 51599) was added thereto.” for “respectively.”

B1: anti-human CD73 antibody CDS-1 (antibody, human IgG1, kappa, L234A L235A)
heavy: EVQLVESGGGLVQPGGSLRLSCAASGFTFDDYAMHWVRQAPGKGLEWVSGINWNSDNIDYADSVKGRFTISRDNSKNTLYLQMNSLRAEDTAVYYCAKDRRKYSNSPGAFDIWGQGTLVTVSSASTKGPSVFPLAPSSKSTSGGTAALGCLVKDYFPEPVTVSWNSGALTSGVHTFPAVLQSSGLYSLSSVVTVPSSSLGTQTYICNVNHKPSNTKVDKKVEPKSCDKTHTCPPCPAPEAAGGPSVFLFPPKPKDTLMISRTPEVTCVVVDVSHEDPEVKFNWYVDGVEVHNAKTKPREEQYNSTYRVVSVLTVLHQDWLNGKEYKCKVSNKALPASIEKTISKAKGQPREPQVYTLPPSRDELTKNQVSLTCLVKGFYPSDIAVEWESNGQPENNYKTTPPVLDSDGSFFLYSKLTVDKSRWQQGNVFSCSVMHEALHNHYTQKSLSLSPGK
light: DIQMTQSPSSLSASVGDRVTITCRASQIIGPWLAWYQQKPGKAPKLLIYRASSLESGVPSRFSGSGSGTDFTLTISSLQPEDFATYYCQQYNSYSPWTFGQGTKVEIKRTVAAPSVFIFPPSDEQLKSGTASVVCLLNNFYPREAKVQWKVDNALQSGNSQESVTEQDSKDSTYSLSSTLTLSKADYEKHKVYACEVTHQGLSSPVTKSFNRGEC
notes: also called purified CDS-1
What is called EC50 is the midpoint of the concentration-response curve. A lower EC50 goes with higher potency in that assay. Regarding B1, in experiment [1], the “EC50 (ng/mL), First; inhibition of enzymatic activity of human CD73 protein (adenosine from AMP, LC/MS)” value came to 16.8 ng/mL and the “EC50 (ng/mL), Second; inhibition of enzymatic activity of human CD73 protein (adenosine from AMP, LC/MS)” value amounted to 9.2 ng/mL. In experiment [2], the “EC50 (ng/mL), First; inhibition of enzymatic activity of human CD73 in NCI-H1373 cells (adenosine from AMP, LC/MS)” value was determined as 785 ng/mL and the “EC50 (ng/mL), Second; inhibition of enzymatic activity of human CD73 in NCI-H1373 cells (adenosine from AMP, LC/MS)” value is 579 ng/mL. Besides, in experiment [3], the “EC50 (ng/mL), IFNγ; recovery of AMP-dependently suppressed human T cell functions” value is 5.8 ng/mL and the “EC50 (ng/mL), Proliferation of T cells; recovery of AMP-dependently suppressed human T cell functions” value came out at 23.2 ng/mL. In experiment [4], this molecule came in with an EC50 of 3.9 ng/mL. Further, a half-maximal effect in experiment [5] (EC50) was put at 0.0088 µg/mL.

B2: CDS-3, fused form in which human IL-7 is fused to the C terminal side of the heavy chain of CDS-1 (antibody, human IgG1, kappa, L234A L235A)
heavy: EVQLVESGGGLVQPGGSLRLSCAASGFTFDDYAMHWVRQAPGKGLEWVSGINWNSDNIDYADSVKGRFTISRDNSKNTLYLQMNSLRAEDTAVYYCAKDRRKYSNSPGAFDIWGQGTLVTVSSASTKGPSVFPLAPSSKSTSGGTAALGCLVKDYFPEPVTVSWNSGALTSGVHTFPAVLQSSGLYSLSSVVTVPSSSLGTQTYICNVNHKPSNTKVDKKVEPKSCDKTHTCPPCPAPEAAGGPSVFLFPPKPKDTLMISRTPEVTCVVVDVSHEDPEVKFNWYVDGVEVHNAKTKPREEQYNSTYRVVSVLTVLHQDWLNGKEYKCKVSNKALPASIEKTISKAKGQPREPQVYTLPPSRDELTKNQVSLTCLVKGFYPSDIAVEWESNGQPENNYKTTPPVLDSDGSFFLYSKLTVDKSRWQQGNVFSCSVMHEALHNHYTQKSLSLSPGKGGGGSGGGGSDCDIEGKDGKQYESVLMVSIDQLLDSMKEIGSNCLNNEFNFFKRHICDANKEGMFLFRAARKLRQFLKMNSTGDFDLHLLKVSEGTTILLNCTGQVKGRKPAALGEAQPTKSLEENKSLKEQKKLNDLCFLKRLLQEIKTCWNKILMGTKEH
light: DIQMTQSPSSLSASVGDRVTITCRASQIIGPWLAWYQQKPGKAPKLLIYRASSLESGVPSRFSGSGSGTDFTLTISSLQPEDFATYYCQQYNSYSPWTFGQGTKVEIKRTVAAPSVFIFPPSDEQLKSGTASVVCLLNNFYPREAKVQWKVDNALQSGNSQESVTEQDSKDSTYSLSSTLTLSKADYEKHKVYACEVTHQGLSSPVTKSFNRGEC
notes: also called purified CDS-3
With B2, the “EC50 (ng/mL), Second; inhibition of enzymatic activity of human CD73 protein (adenosine from AMP, LC/MS)” value in experiment [1] was 19.4 ng/mL. Also, the “EC50 (ng/mL), Second; inhibition of enzymatic activity of human CD73 in NCI-H1373 cells (adenosine from AMP, LC/MS)” value in experiment [2] is 455 ng/mL. For the same molecule, in experiment [5], a half-maximal response (EC50) required 0.0209 µg/mL.

B3: CDS-6, fused form in which human IL-7 variant is fused to the C terminal side of the heavy chain of CDS-1 (antibody, human IgG1, kappa, L234A L235A)
heavy: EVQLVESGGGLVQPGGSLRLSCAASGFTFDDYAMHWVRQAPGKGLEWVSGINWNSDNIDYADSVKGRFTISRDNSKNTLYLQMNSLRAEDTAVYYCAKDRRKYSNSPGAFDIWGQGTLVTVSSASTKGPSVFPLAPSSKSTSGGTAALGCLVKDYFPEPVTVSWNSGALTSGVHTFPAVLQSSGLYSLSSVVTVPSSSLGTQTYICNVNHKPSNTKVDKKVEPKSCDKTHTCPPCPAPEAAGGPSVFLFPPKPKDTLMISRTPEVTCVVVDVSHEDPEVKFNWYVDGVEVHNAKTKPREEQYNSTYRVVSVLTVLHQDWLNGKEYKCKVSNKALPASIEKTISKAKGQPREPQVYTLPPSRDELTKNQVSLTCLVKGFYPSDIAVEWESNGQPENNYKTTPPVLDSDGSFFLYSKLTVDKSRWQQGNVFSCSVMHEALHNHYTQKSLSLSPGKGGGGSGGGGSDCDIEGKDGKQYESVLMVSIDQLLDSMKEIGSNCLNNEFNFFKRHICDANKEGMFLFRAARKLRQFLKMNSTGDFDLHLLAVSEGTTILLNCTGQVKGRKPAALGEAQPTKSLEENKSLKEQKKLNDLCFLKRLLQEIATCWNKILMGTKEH
light: DIQMTQSPSSLSASVGDRVTITCRASQIIGPWLAWYQQKPGKAPKLLIYRASSLESGVPSRFSGSGSGTDFTLTISSLQPEDFATYYCQQYNSYSPWTFGQGTKVEIKRTVAAPSVFIFPPSDEQLKSGTASVVCLLNNFYPREAKVQWKVDNALQSGNSQESVTEQDSKDSTYSLSSTLTLSKADYEKHKVYACEVTHQGLSSPVTKSFNRGEC
notes: also called purified CDS-6
Consider B3, for which, in experiment [1], the “EC50 (ng/mL), Second; inhibition of enzymatic activity of human CD73 protein (adenosine from AMP, LC/MS)” value amounted to 20.4 ng/mL. In addition, the “EC50 (ng/mL), Second; inhibition of enzymatic activity of human CD73 in NCI-H1373 cells (adenosine from AMP, LC/MS)” value in experiment [2] worked out at 678 ng/mL. In experiment [5], this molecule returned a 50% effective concentration (EC50) of 0.0196 µg/mL.

For the origin of these results see US20200071404A1 (Astellas, published 2020).
